In publication PMC8726653, “TNF-induced necroptosis initiates early autophagy events via RIPK3-dependent AMPK activation, but inhibits late autophagy” (Autophagy, 2021):

Target: T1, His-AMPK [His-HsPRKAA1 (11–559) + HsPRKAB2 (1–272) + HsPRKAG1 (1–331)] (human, UniProt Q13131 11-559; O43741 1-272; P54619 1-331)
T1 construct: also called DU32489; source: obtained: MRC PPU Reagents and Services, University of Dundee (DU32489); copies: + +
Assay: pull-down; 4 µg GST-MmRIPK3 (or GST) on glutathione-Sepharose beads incubated with 1 µg His-AMPK overnight at 4°C in 0.5% Nonidet P-40 buffer (50 mM Tris pH 8.0, 100 mM NaCl, 6 mM EDTA, 6 mM EGTA, 1 mM DTT); blot for AMPK and GST
Settings: both partners purified

T1 sequence (Q13131 11-559, chain 1 of 3): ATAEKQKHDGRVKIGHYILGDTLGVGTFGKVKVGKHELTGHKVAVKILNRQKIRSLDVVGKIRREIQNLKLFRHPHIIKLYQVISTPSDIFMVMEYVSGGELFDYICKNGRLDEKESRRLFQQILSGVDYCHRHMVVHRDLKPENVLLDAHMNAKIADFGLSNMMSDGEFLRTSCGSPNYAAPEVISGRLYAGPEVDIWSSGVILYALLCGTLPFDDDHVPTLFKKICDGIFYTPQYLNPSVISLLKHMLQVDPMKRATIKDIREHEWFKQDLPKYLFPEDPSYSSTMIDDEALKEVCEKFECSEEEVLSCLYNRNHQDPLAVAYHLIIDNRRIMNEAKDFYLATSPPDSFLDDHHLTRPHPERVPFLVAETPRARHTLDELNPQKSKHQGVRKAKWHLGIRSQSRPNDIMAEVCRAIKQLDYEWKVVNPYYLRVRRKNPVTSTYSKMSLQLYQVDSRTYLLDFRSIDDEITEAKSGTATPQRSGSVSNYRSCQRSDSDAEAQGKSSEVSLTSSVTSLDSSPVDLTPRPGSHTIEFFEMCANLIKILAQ
T1 sequence (O43741 whole entry, chain 2 of 3): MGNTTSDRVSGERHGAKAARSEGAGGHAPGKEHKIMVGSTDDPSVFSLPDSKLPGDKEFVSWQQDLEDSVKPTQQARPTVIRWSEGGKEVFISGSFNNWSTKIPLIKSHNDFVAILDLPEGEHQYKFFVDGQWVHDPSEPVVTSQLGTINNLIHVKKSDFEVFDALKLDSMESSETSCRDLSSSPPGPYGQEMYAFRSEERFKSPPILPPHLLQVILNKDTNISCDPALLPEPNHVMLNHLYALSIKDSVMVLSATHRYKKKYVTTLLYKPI
T1 sequence (P54619 whole entry, chain 3 of 3): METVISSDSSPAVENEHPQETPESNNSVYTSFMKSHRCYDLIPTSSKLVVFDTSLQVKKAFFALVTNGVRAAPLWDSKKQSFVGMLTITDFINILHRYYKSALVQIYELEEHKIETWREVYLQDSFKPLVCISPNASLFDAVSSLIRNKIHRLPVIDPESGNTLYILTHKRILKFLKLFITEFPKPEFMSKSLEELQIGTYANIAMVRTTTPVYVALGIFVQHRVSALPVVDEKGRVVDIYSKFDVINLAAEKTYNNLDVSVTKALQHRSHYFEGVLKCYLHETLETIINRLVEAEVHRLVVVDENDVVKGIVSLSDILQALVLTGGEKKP

B1: GST-MmRIPK3 (enzyme, mouse, UniProt Q9QZL0 1-486, looked up)
chain: MSSVKLWPTGASAVPLVSREELKKLEFVGKGGFGVVFRAHHRTWNHDVAVKIVNSKKISWEVKAMVNLRNENVLLLLGVTEDLQWDFVSGQALVTRFMENGSLAGLLQPECPRPWPLLCRLLQEVVLGMCYLHSLNPPLLHRDLKPSNILLDPELHAKLADFGLSTFQGGSQSGSGSGSGSRDSGGTLAYLDPELLFDVNLKASKASDVYSFGILVWAVLAGREAELVDKTSLIRETVCDRQSRPPLTELPPGSPETPGLEKLKELMIHCWGSQSENRPSFQDCEPKTNEVYNLVKDKVDAAVSEVKHYLSQHRSSGRNLSAREPSQRGTEMDCPRETMVSKMLDRLHLEEPSGPVPGKCPERQAQDTSVGPATPARTSSDPVAGTPQIPHTLPFRGTTPGPVFTETPGPHPQRNQGDGRHGTPWYPWTPPNPMTGPPALVFNNCSEVQIGNYNSLVAPPRTTASSSAKYDQAQFGRGRGWQPFHK
notes: cDNA amplified from pBOB-FLAG-MmRIPK3 and inserted into pGEX-5X-3; also called recombinant RIPK3; source: E. coli BL21 (DE3), purified on glutathione sepharose 4B beads
Question: Does B1 bind?
Answer: binds
